Laboratory results published in US12104181B2, “Compositions and methods for treating viral infections targeting TRIM7” (THE BOARD OF REGENTS OF THE UNIVERSITY OF TEXAS SYSTEM, priority 2021, dated 2024).
Where “and” joins values, the source holds several entries; their conditions need not be identical. Equal values may be shown once.

B1: TRIML1: human RING type E3 ligase expressed from lentiviral vector (protein, UniProt Q8N9V2 1-468, looked up)
Probable E3 ubiquitin-protein …: MSTADLMENLREELTCFICLDYFSSPVTTECGHSFCLVCLLRSWEEHNTPLSCPECWRTLEGPHFQSNERLGRLASIARQLRSQVLQSEDEQGSYGRMPTTAKALSDDEQGGSAFVAQSHGANRVHLSSEAEEHHREKLQEILNLLRVRRKEAQAVLTHEKERVKLCQEETKTCKQVVVSEYMKMHQFLKEEEQLQLQLLEQEEKENMRKLRNNEIKLTQQIRSLSKMIAQIESSSQSSAFESLEEVRGALERSEPLLLQCPEATTTELSLCRITGMKEMLRKFSTEITLDPATANAYLVLSEDLKSVKYGGSRQQLPDNPERFDQSATVLGTQIFTSGRHYWEVEVGNKTEWEVGICKDSVSRKGNLPKPPGDLFSLIGLKIGDDYSLWVSSPLKGQHVREPVCKVGVFLDYESGHIAFYNGTDESLIYSFPQASFQEALRPIFSPCLPNEGTNTDPLTICSLNSHV
B2: RNF122: human RING type E3 ligase expressed from lentiviral vector (protein, UniProt Q9H9V4 1-155, looked up)
RING finger protein 122: MHPFQWCNGCFCGLGLVSTNKSCSMPPISFQDLPLNIYMVIFGTGIFVFMLSLIFCCYFISKLRNQAQSERYGYKEVVLKGDAKKLQLYGQTCAVCLEDFKGKDELGVLPCQHAFHRKCLVKWLEVRCVCPMCNKPIASPSEATQNIGILLDELV
B3: RNF212: human RING type E3 ligase expressed from lentiviral vector (protein, UniProt Q495C1 1-297, looked up)
Probable E3 SUMO-protein …: MANWVFCNRCFQPPHRTSCFSLTNCGHVYCDACLGKGKKNECLICKAPCRTVLLSKHTDADIQAFFMSIDSLCKKYSRETSQILEFQEKHRKRLLAFYREKISRLEESLRKSVLQIEQLQSMRSSQQTAFSTIKSSVSTKPHGCLLPPHSSAPDRLESMEVDLSPSPIRKSEIAAGPARISMISPPQDGRMGPHLTASFCFIPWLTLSKPPVPGECVISRGSPCFCIDVCPHWLLLLAFSSGRHGELTNSKTLPIYAEVQRAVLFPFQQAEGTLDTFRTPAVSVVFPLCQFERKKSF
B4: RNF25: human RING type E3 ligase expressed from lentiviral vector; listed twice (protein, UniProt Q96BH1 1-459, looked up)
E3 ubiquitin-protein ligase …: MAASASAAAGEEDWVLPSEVEVLESIYLDELQVIKGNGRTSPWEIYITLHPATAEDQDSQYVCFTLVLQVPAEYPHEVPQISIRNPRGLSDEQIHTILQVLGHVAKAGLGTAMLYELIEKGKEILTDNNIPHGQCVICLYGFQEKEAFTKTPCYHYFHCHCLARYIQHMEQELKAQGQEQEQERQHATTKQKAVGVQCPVCREPLVYDLASLKAAPEPQQPMELYQPSAESLRQQEERKRLYQRQQERGGIIDLEAERNRYFISLQQPPAPAEPESAVDVSKGSQPPSTLAAELSTSPAVQSTLPPPLPVATQHICEKIPGTRSNQQRLGETQKAMLDPPKPSRGPWRQPERRHPKGGECHAPKGTRDTQELPPPEGPLKEPMDLKPEPHSQGVEGPPQEKGPGSWQGPPPRRTRDCVRWERSKGRTPGSSYPRLPRGQGAYRPGTRRESLGLESKDGS
modifications: lentiviral expression
B5: RNF111: human RING type E3 ligase expressed from lentiviral vector (protein, UniProt Q6ZNA4 1-994, looked up)
E3 ubiquitin-protein ligase …: MSQWTPEYNELYTLKVDMKSEIPSDAPKTQESLKGILLHPEPIGAAKSFPAGVEMINSKVGNEFSHLCDDSQKQEKEMNGNQQEQEKSLVVRKKRKSQQAGPSYVQNCVKENQGILGLRQHLGTPSDEDNDSSFSDCLSSPSSSLHFGDSDTVTSDEDKEVSVRHSQTILNAKSRSHSARSHKWPRTETESVSGLLMKRPCLHGSSLRRLPCRKRFVKNNSSQRTQKQKERILMQRKKREVLARRKYALLPSSSSSSENDLSSESSSSSSTEGEEDLFVSASENHQNNPAVPSGSIDEDVVVIEASSTPQVTANEEINVTSTDSEVEIVTVGESYRSRSTLGHSRSHWSQGSSSHASRPQEPRNRSRISTVIQPLRQNAAEVVDLTVDEDEPTVVPTTSARMESQATSASINNSNPSTSEQASDTASAVTSSQPSTVSETSATLTSNSTTGTSIGDDSRRTTSSAVTETGPPAMPRLPSCCPQHSPCGGSSQNHHALGHPHTSCFQQHGHHFQHHHHHHHTPHPAVPVSPSFSDPACPVERPPQVQAPCGANSSSGTSYHEQQALPVDLSNSGIRSHGSGSFHGASAFDPCCPVSSSRAAIFGHQAAAAAPSQPLSSIDGYGSSMVAQPQPQPPPQPSLSSCRHYMPPPYASLTRPLHHQASACPHSHGNPPPQTQPPPQVDYVIPHPVHAFHSQISSHATSHPVAPPPPTHLASTAAPIPQHLPPTHQPISHHIPATAPPAQRLHPHEVMQRMEVQRRRMMQHPTRAHERPPPHPHRMHPNYGHGHHIHVPQTMSSHPRQAPERSAWELGIEAGVTAATYTPGALHPHLAHYHAPPRLHHLQLGALPLMVPDMAGYPHIRYISSGLDGTSFRGPFRGNFEELIHLEERLGNVNRGASQGTIERCTYPHKYKKVTTDWFSQRKLHCKQDGEEGTEEDTEEKCTICLSILEEGEDVRRLPCMHLFHQVCVDQWLITNKKCPICRVDIEAQLPSES
B6: RNF139: human RING type E3 ligase expressed from lentiviral vector (protein, UniProt Q8WU17 2-664, looked up)
E3 ubiquitin-protein ligase …: AAVGPPQQQVRMAHQQVWAALEVALRVPCLYIIDAIFNSYPDSSQSRFCIVLQIFLRLFGVFASSIVLILSQRSLFKFYTYSSAFLLAATSVLVNYYASLHIDFYGAYNTSAFGIELLPRKGPSLWMALIVLQLTFGIGYVTLLQIHSIYSQLIILDLLVPVIGLITELPLHIRETLLFTSSLILTLNTVFVLAVKLKWFYYSTRYVYLLVRHMYRIYGLQLLMEDTWKRIRFPDILRVFWLTRVTAQATVLMYILRMANETDSFFISWDDFWDLICNLIISGCDSTLTVLGMSAVISSVAHYLGLGILAFIGSTEEDDRRLGFVAPVLFFILALQTGLSGLRPEERLIRLSRNMCLLLTAVLHFIHGMTDPVLMSLSASHVSSFRRHFPVLFVSACLFILPVLLSYVLWHHYALNTWLFAVTAFCVELCLKVIVSLTVYTLFMIDGYYNVLWEKLDDYVYYVRSTGSIIEFIFGVVMFGNGAYTMMFESGSKIRAFMMCLHAYFNIYLQAKNGWKTFMNRRTAVKKINSLPEIKGSRLQEINDVCAICYHEFTTSARITPCNHYFHALCLRKWLYIQDTCPMCHQKVYIEDDIKDNSNVSNNNGFIPPNETPEEAVREAAAESDRELNEDDSTDCDDDVQRERNGVIQHTGAAAEEFNDDTD
B7: RNF146: human RING type E3 ligase expressed from lentiviral vector (protein, UniProt Q9NTX7 1-359, looked up)
E3 ubiquitin-protein ligase …: MMAGCGEIDHSINMLPTNRKANESCSNTAPSLTVPECAICLQTCVHPVSLPCKHVFCYLCVKGASWLGKRCALCRQEIPEDFLDKPTLLSPEELKAASRGNGEYAWYYEGRNGWWQYDERTSRELEDAFSKGKKNTEMLIAGFLYVADLENMVQYRRNEHGRRRKIKRDIIDIPKKGVAGLRLDCDANTVNLARESSADGADSVSAQSGASVQPLVSSVRPLTSVDGQLTSPATPSPDASTSLEDSFAHLQLSGDNTAERSHRGEGEEDHESPSSGRVPAPDTSIEETESDASSDSEDVSAVVAQHSLTQQRLLVSNANQTVPDRSDRSGTDRSVAGGGTVSVSVRSRRPDGQCTVTEV

Tested on: coxsackievirus B3 (CVB3-GFP)
Assay type: cell-based
Conditions: HeLa cells, replicate R1; for Percent Infected R1: GFP-positive cells within RFP-positive gate

Molecule	Percent Infected R1	Z score R1
B1	77.6%	−0.14
B2	90.3%	0.02
B3	91.1%	0.03
B4	90.6% and 89.2%	0.03 and 0.01
B5	84.2%	−0.06
B6	77.5%	−0.14
B7	89.7%	0.01
